Target: amino-terminal ∼1400 amino-acid segment of human MUC2 (human)
Assay: western blot of disulfide-bonded dimers

## amino-terminal ∼1400 amino-acid segment of human MUC2 (domain or fragment)
  stoichiometry N: 2

Source: article doi:10.1101/2022.05.03.490496
